{
  "source": "patent US10329548B2",
  "about": "“Fungal cellobiohydrolases” (Alliance for Sustainable Energy, LLC, priority 2017, dated 2019)",
  "proteins": {"B1": {"name": "Trichoderma reesei Cel7A (TrCel7A, SEQ ID NO: 37) variant 1-1d, A241V (with secretion signal) / A224V (without secretion signal) (Trichoderma reesei RUT C-30; … (protein)", "chain": "QSACTLQSETHPPLTWQKCSSGGTCTQQTGSVVIDANWRWTHATNSSTNCYDGNTWSSTLCPDNETCAKNCCLDGAAYASTYGVTTSGNSLSIGFVTQSAQKNVGARLYLMASDTTYQEFTLLGNEFSFDVDVSQLPCGLNGALYFVSMDADGGVSKYPTNTAGAKYGTGYCDSQCPRDLKFINGQANVEGWEPSSNNANTGIGGHGSCCSEMDIWEANSISEVLTPHPCTTVGQEICEGDGCGGTYSDNRYGGTCDPDGCDWNPYRLGNTSFYGPGSSFTLDTTKKLTVVTQFETSGAINRYYVQNGVTFQQPNAELGSYSGNELNDDYCTAEEAEFGGSSFSDKGGLTQFKKATSGGMVLVMSLWDDYYANMLWLDSTYPTNETSSTPGAVRGSCSTSSGVPAQVESQSPNAKVTFSNIKFGPIGSTGNPSGGNPPGGNPPGTTTTRRPATTTGSSPGPTQSHYGQCGGIGYSGPTVCASGTTCQVLNPYYSQCL"}, "B2": {"name": "Trichoderma reesei Cel7A (TrCel7A, SEQ ID NO: 37) variant 6-87a, D274V (with secretion signal) / D257V (without secretion signal) (Trichoderma reesei RUT C-30; … (protein)", "chain": "B1 chain with V224A, D257V"}, "B3": {"name": "Trichoderma reesei Cel7A (TrCel7A) wild-type, SEQ ID NO: 37 (Trichoderma reesei RUT C-30) (protein)", "chain": "B1 chain with V224A"}, "B4": {"name": "Trichoderma reesei Cel7A (TrCel7A, SEQ ID NO: 37) variant 11-35a, G461D (with secretion signal) / G444D (without secretion signal) (Trichoderma reesei RUT … (protein)", "chain": "B1 chain with V224A, G444D"}, "B5": {"name": "Trichoderma reesei Cel7A (TrCel7A, SEQ ID NO: 37) variant 2-18c, T406S/A389V (with secretion signal) / T389S/A372V (without secretion signal) (Trichoderma … (protein)", "chain": "B1 chain with V224A, A372V, T389S"}, "B6": {"name": "Trichoderma reesei Cel7A (TrCel7A, SEQ ID NO: 37) variant 6-53a, I110M/Y283N/T462I (with secretion signal) / I93M/Y266N/T445I (without secretion signal) … (protein)", "chain": "B1 chain with I93M, V224A, Y266N, T445I"}, "B7": {"name": "Trichoderma reesei Cel7A (TrCel7A, SEQ ID NO: 37) variant 1-11, L366M (with secretion signal) / L349M (without secretion signal) (Trichoderma reesei RUT C-30; … (protein)", "chain": "B1 chain with V224A, L349M"}},
  "format_in_all_cases": "biochemical, Trichoderma reesei",
  "key": {"[1]": {"substrate": "[H][C@@]1(O[C@H]2[C@H](O)[C@@H](O)[C@H](Oc3ccc([N+](=O)[O-])cc3)O[C@@H]2CO)O[C@H](CO)[C@H](O)[C@H](O)[C@H]1O", "test": "pNP-Lactopyranoside (pNP-L) assay, kinetics, TrCel7A 1-1d", "settings": "other: TrCel7A 1-1d, 45° C., 30 minutes, pNP-L 8 mM-0.133 mM", "text": "(§1) The wild-type (wt) TrCel7A sequence was aligned with all the high-pNP-L activity sequences in order to identify the corresponding positions of mutations in TrCel7A. Without being bound by theory, these mutations should result in improving pNP-L activity of TrCel7A. PCR-based point mutagenesis or gene synthesis was used to generate the corresponding 9 TrCel7A mutants.\n(§2) Cel7A was purified as described in Linger et al., Biotechnol Biofuels 8:45 (2015). Briefly, fermentation broths (˜8 to 10 L) were harvested, vacuum filtered, concentrated, and then loaded onto a 26/10 Phenyl Sepharose Fast Flow column. Buffer A was 20 mM Bis-Tris pH 6.5 and buffer B was 20 mM Bis-Tris pH 6.5, 2.0 M (NH4)2SO4. After binding and washing, a descending gradient of 80% B (1.6 M (NH4)2SO4) to 0% B over eight column volumes was used to elute the bound proteins from the column. Active fractions were identified by a p-nitrophenyl-β-(1-4)-D-lactopyranoside (pNP-L) activity assay. The pNP-L-active fractions were pooled and concentrated as needed. Protein was desalted and exchanged into 20 mM Bis-Tris buffer pH 6.5. […]\n(§3) The pNP-L assay was performed by incubating 150 μL of 2 mM pNP-L with 25 μL of sample at 45° C. for 30 minutes. Reactions were quenched with 25 μL of 1 M Na2CO3, and the absorbance at 405 nm was measured. […]"}, "[2]": {"substrate": "[H][C@@]1(O[C@H]2[C@H](O)[C@@H](O)[C@H](Oc3ccc([N+](=O)[O-])cc3)O[C@@H]2CO)O[C@H](CO)[C@H](O)[C@H](O)[C@H]1O", "test": "pNP-Lactopyranoside (pNP-L) assay, kinetics, TrCel7A 6-87a", "settings": "other: TrCel7A 6-87a, 45° C., 30 minutes, pNP-L 8 mM-0.133 mM", "text": "as §1, §2, §3"}, "[3]": {"substrate": "[H][C@@]1(O[C@H]2[C@H](O)[C@@H](O)[C@H](Oc3ccc([N+](=O)[O-])cc3)O[C@@H]2CO)O[C@H](CO)[C@H](O)[C@H](O)[C@H]1O", "test": "pNP-Lactopyranoside (pNP-L) assay, kinetics, TrCel7A WT", "settings": "other: TrCel7A WT, 45° C., 30 minutes, pNP-L 8 mM-0.133 mM", "procedure": "as §2, with “6.5. This sample was then loaded onto a Tricorn 10/100 anion exchange column packed with Source 15Q and eluted with a 0-50% salt gradient over 30 column volumes. Buffers were 20 mM Bis-Tris pH 6.5 (A) and the same supplemented with 1.0 M NaCl (B). pNP-L activity was followed again to identify the active fractions.” for “6.5.”\nas §3"}, "[4]": {"substrate": "[H][C@@]1(O[C@H]2[C@H](O)[C@@H](O)[C@H](Oc3ccc([N+](=O)[O-])cc3)O[C@@H]2CO)O[C@H](CO)[C@H](O)[C@H](O)[C@H]1O", "test": "pNP-Lactopyranoside (pNP-L) assay, kinetics, TrCel7A 11-35a", "settings": "other: TrCel7A 11-35a, 45° C., 30 minutes, pNP-L 8 mM-0.133 mM", "text": "as §1, §2, §3"}, "[5]": {"substrate": "[H][C@@]1(O[C@H]2[C@H](O)[C@@H](O)[C@H](Oc3ccc([N+](=O)[O-])cc3)O[C@@H]2CO)O[C@H](CO)[C@H](O)[C@H](O)[C@H]1O", "test": "pNP-Lactopyranoside (pNP-L) assay, kinetics, TrCel7A 2-18c", "settings": "other: TrCel7A 2-18c, 45° C., 30 minutes, pNP-L 8 mM-0.133 mM", "text": "as §1, §2, §3"}, "[6]": {"substrate": "[H][C@@]1(O[C@H]2[C@H](O)[C@@H](O)[C@H](Oc3ccc([N+](=O)[O-])cc3)O[C@@H]2CO)O[C@H](CO)[C@H](O)[C@H](O)[C@H]1O", "test": "pNP-Lactopyranoside (pNP-L) assay, kinetics, TrCel7A 6-53a", "settings": "other: TrCel7A 6-53a, 45° C., 30 minutes, pNP-L 8 mM-0.133 mM", "text": "as §1, §2, §3"}, "[7]": {"substrate": "[H][C@@]1(O[C@H]2[C@H](O)[C@@H](O)[C@H](Oc3ccc([N+](=O)[O-])cc3)O[C@@H]2CO)O[C@H](CO)[C@H](O)[C@H](O)[C@H]1O", "test": "pNP-Lactopyranoside (pNP-L) assay, kinetics, TrCel7A 1-11", "settings": "other: TrCel7A 1-11, 45° C., 30 minutes, pNP-L 8 mM-0.133 mM", "text": "as §1, §2, §3"}},
  "note": "Positions count from the first letter of the chain named. Names may count otherwise.",
  "data": [
    {"protein": "B1", "values": [
      {"measurement": "kcat", "setting": "[1]", "value": "0.933 ± 0.0667", "unit": "s⁻¹"}
    ]},
    {"protein": "B2", "values": [
      {"measurement": "kcat", "setting": "[2]", "value": "0.4 ± 0.0667", "unit": "s⁻¹"}
    ]},
    {"protein": "B3", "values": [
      {"measurement": "kcat", "setting": "[3]", "value": "0.333 ± 0.0167", "unit": "s⁻¹"}
    ]},
    {"protein": "B4", "values": [
      {"measurement": "kcat", "setting": "[4]", "value": 0.183, "unit": "s⁻¹"}
    ]},
    {"protein": "B5", "values": [
      {"measurement": "Km", "setting": "[5]", "value": "1980 ± 180", "unit": "µM"},
      {"measurement": "kcat", "setting": "[5]", "value": "0.467 ± 0.117", "unit": "s⁻¹"}
    ]},
    {"protein": "B6", "values": [
      {"measurement": "kcat", "setting": "[6]", "value": "0.35 ± 0.05", "unit": "s⁻¹"}
    ]},
    {"protein": "B7", "values": [
      {"measurement": "kcat", "setting": "[7]", "value": "0.182 ± 0.00333", "unit": "s⁻¹"}
    ]}
  ]
}
